Results: US20110263454A1, “Methods of Identifying Functional Characteristics of Promoters, Transcription Modifying Proteins and Transcription Modulating Agents” (Salk Institute for Biological Studies, priority 2008, published 2011)

B1: NR4a2: NR4a2 (NR4A2; NURR1), nuclear hormone receptor cDNA driver (protein, UniProt P43354 1-598, looked up)
Nuclear receptor subfamily 4 …: MPCVQAQYGSSPQGASPASQSYSYHSSGEYSSDFLTPEFVKFSMDLTNTEITATTSLPSFSTFMDNYSTGYDVKPPCLYQMPLSGQQSSIKVEDIQMHNYQQHSHLPPQSEEMMPHSGSVYYKPSSPPTPTTPGFQVQHSPMWDDPGSLHNFHQNYVATTHMIEQRKTPVSRLSLFSFKQSPPGTPVSSCQMRFDGPLHVPMNPEPAGSHHVVDGQTFAVPNPIRKPASMGFPGLQIGHASQLLDTQVPSPPSRGSPSNEGLCAVCGDNAACQHYGVRTCEGCKGFFKRTVQKNAKYVCLANKNCPVDKRRRNRCQYCRFQKCLAVGMVKEVVRTDSLKGRRGRLPSKPKSPQEPSPPSPPVSLISALVRAHVDSNPAMTSLDYSRFQANPDYQMSGDDTQHIQQFYDLLTGSMEIIRGWAEKIPGFADLPKADQDLLFESAFLELFVLRLAYRSNPVEGKLIFCNGVVLHRLQCVRGFGEWIDSIVEFSSNLQNMNIDISAFSCIAALAMVTERHGLKEPKRVEELQNKIVNCLKDHVTFNNGGLNRPNYLSKLLGKLPELRTLCTQGLQRIFYLKLEDLVPPPAIIDKLFLDTLPF
B2: hMR: Mineralocorticoid Receptor (NR3C2, MR), cDNA driver (protein, UniProt P08235 1-984, looked up)
Mineralocorticoid receptor: METKGYHSLPEGLDMERRWGQVSQAVERSSLGPTERTDENNYMEIVNVSCVSGAIPNNSTQGSSKEKQELLPCLQQDNNRPGILTSDIKTELESKELSATVAESMGLYMDSVRDADYSYEQQNQQGSMSPAKIYQNVEQLVKFYKGNGHRPSTLSCVNTPLRSFMSDSGSSVNGGVMRAVVKSPIMCHEKSPSVCSPLNMTSSVCSPAGINSVSSTTASFGSFPVHSPITQGTPLTCSPNVENRGSRSHSPAHASNVGSPLSSPLSSMKSSISSPPSHCSVKSPVSSPNNVTLRSSVSSPANINNSRCSVSSPSNTNNRSTLSSPAASTVGSICSPVNNAFSYTASGTSAGSSTLRDVVPSPDTQEKGAQEVPFPKTEEVESAISNGVTGQLNIVQYIKPEPDGAFSSSCLGGNSKINSDSSFSVPIKQESTKHSCSGTSFKGNPTVNPFPFMDGSYFSFMDDKDYYSLSGILGPPVPGFDGNCEGSGFPVGIKQEPDDGSYYPEASIPSSAIVGVNSGGQSFHYRIGAQGTISLSRSARDQSFQHLSSFPPVNTLVESWKSHGDLSSRRSDGYPVLEYIPENVSSSTLRSVSTGSSRPSKICLVCGDEASGCHYGVVTCGSCKVFFKRAVEGQHNYLCAGRNDCIIDKIRRKNCPACRLQKCLQAGMNLGARKSKKLGKLKGIHEEQPQQQQPPPPPPPPQSPEEGTTYIAPAKEPSVNTALVPQLSTISRALTPSPVMVLENIEPEIVYAGYDSSKPDTAENLLSTLNRLAGKQMIQVVKWAKVLPGFKNLPLEDQITLIQYSWMCLSSFALSWRSYKHTNSQFLYFAPDLVFNEEKMHQSAMYELCQGMHQISLQFVRLQLTFEEYTIMKVLLLLSTIPKDGLKSQAAFEEMRTNYIKELRKMVTKCPNNSGQSWQRFYQLTKLLDSMHDLVSDLLEFCFYTFRESHALKVEFPAMLVEIISDQLPKVESGNAKPLYFHRK
B3: PR: Progesterone Receptor (NR3C3), cDNA driver (protein, UniProt P06401 1-933, looked up)
Progesterone receptor: MTELKAKGPRAPHVAGGPPSPEVGSPLLCRPAAGPFPGSQTSDTLPEVSAIPISLDGLLFPRPCQGQDPSDEKTQDQQSLSDVEGAYSRAEATRGAGGSSSSPPEKDSGLLDSVLDTLLAPSGPGQSQPSPPACEVTSSWCLFGPELPEDPPAAPATQRVLSPLMSRSGCKVGDSSGTAAAHKVLPRGLSPARQLLLPASESPHWSGAPVKPSPQAAAVEVEEEDGSESEESAGPLLKGKPRALGGAAAGGGAAAVPPGAAAGGVALVPKEDSRFSAPRVALVEQDAPMAPGRSPLATTVMDFIHVPILPLNHALLAARTRQLLEDESYDGGAGAASAFAPPRSSPCASSTPVAVGDFPDCAYPPDAEPKDDAYPLYSDFQPPALKIKEEEEGAEASARSPRSYLVAGANPAAFPDFPLGPPPPLPPRATPSRPGEAAVTAAPASASVSSASSSGSTLECILYKAEGAPPQQGPFAPPPCKAPGASGCLLPRDGLPSTSASAAAAGAAPALYPALGLNGLPQLGYQAAVLKEGLPQVYPPYLNYLRPDSEASQSPQYSFESLPQKICLICGDEASGCHYGVLTCGSCKVFFKRAMEGQHNYLCAGRNDCIVDKIRRKNCPACRLRKCCQAGMVLGGRKFKKFNKVRVVRALDAVALPQPVGVPNESQALSQRFTFSPGQDIQLIPPLINLLMSIEPDVIYAGHDNTKPDTSSSLLTSLNQLGERQLLSVVKWSKSLPGFRNLHIDDQITLIQYSWMSLMVFGLGWRSYKHVSGQMLYFAPDLILNEQRMKESSFYSLCLTMWQIPQEFVKLQVSQEEFLCMKVLLLLNTIPLEGLRSQTQFEEMRSSYIRELIKAIGLRQKGVVSSSQRFYQLTKLLDNLHDLVKQLHLYCLNTFIQSRALSVEFPEMMSEVIAAQLPKILAGMVKPLLFHKK

Experiments:
[1] = system: mPer1 promoter; assay: NHR-promoter luciferase screen, mPer1 promoter; assay type: cell-based, mouse; conditions: for Luc. act., normalized to lacZ / Normalized Luc. act., normalized to control: Per1 promoter reporter, co-transfected HR, with or without its ligand; for Normalized Luc. act., normalized to control: relative to control; for luciferase activity normalized to lacZ activity and to a control, mPer1: mPer1 promoter-luciferase, CV-1 cells, NHR +/- ligand, control = 1.00
Outline: (§1)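 CV-1 cells were co-transfected with 50 ng NHR (homodimer or NHR/RXR heterodimer), 100 ng promoter-luciferase construct and 50 ng LacZ. Luciferase was normalized to LacZ and to a no-NHR/no-ligand control.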

[2] = system: mUCP3 promoter; assay: NHR-promoter luciferase screen, mUCP3 promoter; assay type: cell-based, mouse; conditions: for Normalized Luc. act., normalized to control / Luc. act., normalized to lacZ: mUCP3 promoter reporter; for Normalized Luc. act., normalized to control: HR without or with its ligand, relative to control; for Luc. act., normalized to lacZ: hormone receptor (HR) without or with its ligand; for mUCP3 promoter reporter activity: transcription factor +/- ligand, control = 1.00
Outline: as §1

[3] = system: MCP-1 promoter; assay: NHR-promoter luciferase screen, MCP-1 promoter; assay type: cell-based; conditions: for Normalized Luc. act., normalized to control / Luc. act., normalized to lacZ: MCP-1 promoter reporter; for Normalized Luc. act., normalized to control: HR without or with its ligand, relative to control; for Luc. act., normalized to lacZ: hormone receptor (HR) without or with its ligand; for mMCP-1 promoter reporter activity: transcription factor +/- ligand, control = 1.00
Outline: as §1

[4] = system: hCYP3A4 promoter; assay: NHR-promoter luciferase screen, hCYP3A4 promoter; assay type: cell-based, human; conditions: for Luc. act., normalized to lacZ / Normalized Luc. act., normalized to control: CYP3A4 promoter, HR/ligand component; for hCYP3A4 promoter reporter activity: transcription factor +/- ligand, control = 1.00
Outline: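 CV-1 cells co-transfected with NHR homodimer or NHR/RXR heterodimer (pcDNA3.1, C-terminal V5H6 tag), promoter-luciferase construct and LacZ transfection control. Orphan receptors screened without ligand. Luciferase normalized to LacZ and to no-NHR/no-ligand control.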

[5] = system: mADRP promoter; assay: NHR-promoter luciferase screen, mADRP promoter; assay type: cell-based, mouse; conditions: for Luc. act., normalized to lacZ / Normalized Luc. act., normalized to control: ADRP promoter, HR/ligand component; for mADRP promoter reporter activity: transcription factor +/- ligand, control = 1.00
Outline: as §1

[6] = system: mABCA1 promoter; assay: NHR-promoter luciferase screen, mABCA1 promoter; assay type: cell-based, mouse; conditions: for Luc. act., normalized to lacZ / Normalized Luc. act., normalized to control: ABCA1 promoter, hormone receptor with or without its ligand; for Normalized Luc. act., normalized to control: relative to control; for mABCA1 promoter reporter activity: transcription factor +/- ligand, control = 1.00
Outline: as §1

Molecule	Luc. act., normalized to lacZ [1]	Normalized Luc. act., normalized to control [1]	luciferase activity normalized to lacZ activity and to a control, mPer1 [1]	Normalized Luc. act., normalized to control [2]	Luc. act., normalized to lacZ [2]	mUCP3 promoter reporter activity [2]	Normalized Luc. act., normalized to control [3]	Luc. act., normalized to lacZ [3]	mMCP-1 promoter reporter activity [3]	Luc. act., normalized to lacZ [4]	Normalized Luc. act., normalized to control [4]	hCYP3A4 promoter reporter activity [4]	Luc. act., normalized to lacZ [5]	Normalized Luc. act., normalized to control [5]	mADRP promoter reporter activity [5]	Luc. act., normalized to lacZ [6]	Normalized Luc. act., normalized to control [6]	mABCA1 promoter reporter activity [6]
B1	155.3	1.1	1.08	1.0	0.68	1.01	0.6	58.9	0.55	3.5	0.8	0.79	382.8	0.8	0.77	6.2	1.1	1.11
B2	351.9	2.4	2.44	0.7	0.50	0.74	0.0		0.00	2.6	0.6	0.58	306.4	0.6	0.62	6.8	1.2	1.21
B3	207.4	1.4	1.44	1.3	0.86	1.27	1.2	128.0	1.20	6.5	1.5	1.47	497.2	1.0	1.00	8.9	1.6	1.58
